Source: patent US20090018067A1 (published 2009)

Columns and labels:
Test in all cases: soluble HLA class II competition assay against a biotinylated control peptide, affinity grade
[1] = target: T1, HLA DRB1*0701 (purified recombinant soluble HLA class II molecule) (human)
T1 construct: also called DRB*0701

[2] = target: HLA DRB1*1501 (purified recombinant soluble HLA class II molecule) (human)
[3] = target: T2, HLA DRB1*0101 (purified recombinant soluble HLA class II molecule) (human)
T2 construct: also called DRB*0101

[4] = target: T3, HLA DRB1*0401 (purified recombinant soluble HLA class II molecule) (human)
T3 construct: also called DRB*0401

Measured: binding result

B1: Tregitope-074 (peptide)
peptide: VDTSKNQFSLRLSSVTAADTA
notes: Synthetic Fmoc peptide
binds: all assays above
